Measured values from the nanobody polyreactivity screen of Harvey et al. (2022).

Test: yeast display, Sf9 membrane polyspecificity reagent, FACS + sequencing; frameworks hold sequencing errors
Procedure, shortened: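 Nanobodies from a synthetic yeast display library (Saccharomyces cerevisiae BJ5465), induced 36–48 hours with galactose, were stained 1 hour at 4 °C with 10% biotinylated, detergent-solubilized Sf9 membrane reagent, enriched on streptavidin microbeads, then FACS-sorted. Anti-HA (expression) and streptavidin (reagent binding) fluorescence set low and high (top ~1%) gates. Polyreactivity labels come from the gate of origin. Genes were colony-PCR amplified, MiSeq 2 × 250 sequenced and filtered by CDR length.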

Row | Sequence | polyreactivity (PSR sort gate)
1 | QVQLVESGGGLVQAGGSLRLSCAASVFLPYTMGWYRQAPGKERELVAAITRGGSTYYADSVKGRFTISRDNAKNTVYLQMNSLKPEDTAVYYCAKRSTFAWRGYDYWGQGTQVTVSS | high polyreactivity
2 | QVQLVESGGGLVQAGGSLRLSCAASGFIFYDYAMGWYRQAPGKERELVAAITVDGGTTYYADSVKGRFTISRDNAKNTVYLQMNSLKPEDTAVYYCAADTYYGFDSNYEYCGQGTQVTVSS | low polyreactivity
3 | QVQLVESGGRLRQAGGSLRLSCAASGSTFVSYAMGWYRQAPGKERELVAAISTSGGRSYYADSVKGRFTISRDNAKNTVYLQMNSLKREDTAVYYCAAEHYQRWWPYWYWPYYWGQGTQVTVSS | high polyreactivity
4 | QVQLQESGGGLVQAGGSLRLGCAASGNISDAGYMGWYRQAPGKEREFVAAIAAGSNTNYADSVKGRFTISRDNAKNTVYMQLNSLKSEDTGVFYCAVASYDRVQYEYWGQGTQVTVNS | low polyreactivity
5 | QVQLVESGGGLVQAGGSLSLSCAASGATFVRNAMGWYRQAPGKERELVAVISFRGGRTYYADSVKGRFTISRDNAKNTVYLQMNSLNPEDTAVYYCAKDRVASGVISSVDSWGQGTLVTVSS | low polyreactivity
6 | QVQLVESGGGLVQAGGSLRLSCAPSGSILRSYDMGWYRQAPGTERELVAAISSSGGSTYYADSVKGRFTISRDNAKNTVYLQMNSLKQEDTAVYYCAAATSRRFDYWGQGTQVTVSS | high polyreactivity
7 | QVKLVESGGGLVQAGGSLRLSCPASGSIFYRNTMGWYRQEPGKERELVASITSGSSTFYADSVKGRFTISRDNAKNTVYLQMNSLKAEDTAVYYCAKRRGSPGFRFRAGGAYGYWGQGTQVTVSS | low polyreactivity
8 | QVQLVESGGGLVQAGGSLRLSCAASGSIFSSNVMGWYRQAPGKERELVAAITVRGSRTYYADSVKGRFTISRDNAKNTVYLQMNSLKPEDTAVYYCNAVARVLGSDRRLQYYYWGQGTQVTVSS | high polyreactivity
9 | QVQLVDSVGGLVQAGGSLRLSCAASGRTFSNYAMGWYRQAPGKERQLVAAISGTGDNTYYADSVKGRFTISRDNAKNTVYLQMNSLKPEDTAVYYCKTVYYGWPRRYGYWGQGTQVTVSS | high polyreactivity
10 | QVQLVESCGGLVQAGCSLRLSCAASGRTFAYNAMGWYRQAPGKERELVADITSGGSTYYADSVKGRFTISRDNAKNTVYLQMNSLKPEDTAVYYCAAYPQFWYWDYNYWGQGTQVTVSS | high polyreactivity
11 | QVQLVESGGGLVQAGGSLRLSCAASGSIFDDYAMGWYRQAAGKERELVAAITWNGGSTYADSVKGRFTISRDYAKNTVYLQMHSLKPEDTAVYYCNRGGAFNTRNEITRYGYWGQGTQVTVSS | low polyreactivity
12 | QVQLVESGGGLVQAGGSLRLSCAASGLIFYFYVMGWYRQAPGKERELVAGIDTGSSTNYADSVKGRFTISRDNAKNTVYLQMNSLKPEDTAVYYCAADSVSKYGSDYWGQGTQVTVSS | low polyreactivity
13 | QVQLVESGGGLVQAGGSLRLSCAASGRTFAQYVMGWYRQAPGTERELVAAISGIGGSTYYADSVKGRFTISRDNAKNTVYLQMNSLNPEDTAVYYCAVELYWYPGYDYWGQGTQVTVSS | low polyreactivity
14 | QVQLVESGGGLVQAGGSLRLSCAASGLIFSHNVMGWYRQAPGKERELVAAISKGGGSTYYADSVKGRFTISRDNAKNTVYLQLNSLIPEDTAVYYCAAPYWSKYRQTEYDYWGQGTQVTVSS | high polyreactivity
15 | QVQLVESGGGLDQAGGSLRLSCAAYGITFGYYAMGWYRQAPGKERELVASITTRGGSTSYADSVKGRFTISRDNAKNTVYLQMNSLKPEDTAVYYCAARWRQRKSVRYGQQGYDYWGQGTQVTVSS | high polyreactivity
16 | QVQLVESGGGLVQAGGSLRLSCAASGSTFGFYAMGWYRQAPGKERELVAAISWNDGSTYYADSVKGRFTISRDNAKNTVYLQMNSLKPEDTAVYYCATEYSLWYTRDWQRYEYWGQGTQVTVSS | high polyreactivity
17 | QVQLVESGGGLVQAGGSLRLSCAASGFTFWGNAMGWSRQAPVKERELVAAISRSGGRTYYADSVKGRFTISRDNAKNTVYLQMNSLKPEDTAVYYCDAGSSHHFDYEGGYWGQGTQVTVSS | low polyreactivity
18 | QVQLVESGGGLVQAGGSLRLSCAASGITFYKNVMGWYRQAPGKERELVAAISSSGGSTYYADSVKGRFTISRDNAKNTVYLQMNSLKPEDTAVYYCAADEDDVVSGFLRYFYVAYYYWGQGTQVTVSS | low polyreactivity
19 | QVQLVESGGGLVQAGGSLRLSCAASGSNLATYTMGWYRQEPGKERELVAAISFGGSTYYADSVKGRFTISRDNAKNTDYLQMNSLKPEDTAVYYCAVYGDSYWGAYYYSDGYWGQGTQVTVSS | low polyreactivity
20 | QVQLVESGGGLVQAGGSLRLSCAASGRIFKIYAMGWYRQAPGKERELVASISWSGGRTYYADSVKGRFTISRDNAKNTVYLQMNSLKPEDTAVYYCAATFSYSSYIYDYWGQGTQVTVSS | high polyreactivity

Row | Sequence | polyreactivity (PSR sort gate)
21 | QVQLVESGGGLVQAGGSLRLSCAASGSTFKYYAMGWYRQATGKERELLAAITWRGGSTYYADSVKGRFTISRDNAKNSVYLLMKSLKPEDTAVYYCARQRYYGLRTLMEHWGQGTQVTVSS | high polyreactivity
22 | QVQLVESGGGLVQAGGSLRLSCAASGSIFPGYVMGWYRQAPGTERELVAAISWSGGSTYYADSVKGRFTISRDNAMNTVYLQLNSLKPEDTAVYYWAADYSYYHGPSRHKHDYWGQGTQVTVSS | low polyreactivity
23 | QVQLVESGGGLVQAGGSLRLSCAASGSTFYFNAMGWYRQAPGKERELVAVIDGSGGFTYDADSVKGRFTISRDNAKNTVYLQMNSLKPEDTAVYYCNADLVYNTFIYSGGDEYDYWGQGTQGTVSS | high polyreactivity
24 | QDPLEESGGGLVQAGGSLRLSCAASGFTFTDYAMGWTRQAPGKERQLVAVISRSGGSTNYADSVKGRFTISRDKAKNTVYLQMNCLKPEDTAVYYCNAGKYLYRHGFLSSGDMYYWGQGTQVTVSS | high polyreactivity
25 | QVQLVESGGGLVQAGGSLRLSCAAAGSIFRINDMGWYRQATGKERELVAAITFSGGSTYADSVKGRFTISRDNAKNTVYLQMNSLKPEDTAVYYCNADGAYWTDYYLYDYWGHGTQVTVSS | low polyreactivity
26 | QVQIVESGGGLVQAGGSLRLSCSASGSTFPFYAMGWYRQAPGKERELVAAITRSGSRTYYADSVKGRFTISRDNAKNTVFLQMNSLKPEDTAVYYFAASSTDLYFWGQGTQVTVSS | high polyreactivity
27 | QVQLVESGGGLVQAGRSLRLSCAASGTFIGYAMVWYRQAPGKERELVAAIDESGGSTYYADSVKGRFTISRDNAKNTVYLQMNSLKPEDTAVYYCAAYRYYSDYDYWGQGTQVTVSS | low polyreactivity
28 | QVQLVESGGGLVQAGGSLRLSCAASGSIFGYYTMGWYIQAPGKERELVARITRGGSTYYADSVKGRFTISRDNAKNTVYLQLNSLKPEDTAVYYCAARRVNAGWTYGLRGNYWGQGTQVTVSS | low polyreactivity
29 | QVQLHESGGGLVQARGSLRLSCAASGTSSNAGPMGWYRQAPGKEREFVAGIGVGSNTNYADSVKGRYTIIRDNAKNTVYLQMNSLKPEDTAVYYCAVGGYAPLGRPYWGQGTQVTVSS | low polyreactivity
30 | QVQLVESGGGLVQAGGSLRLSCAASGSIFSGNVMGWYRPAPGKERELVAAISGRGGSTYYPDSVKGRFTISRDNAKNTVFLQMNSRNPVDTAVYECAAVYLKTYYWGQGTQVTVSS | high polyreactivity
31 | QVQLVESGGGLVQAGGSLRLSCAASGFIFYSNAMGWYRQAPGKERELVAAISRRGGSTYYADSVKGRFTISRDNAKNTVYLQMNSLKPEDTAVYYCAARVVSGFDSWGQGTQVTVSS | high polyreactivity
32 | QVQLVESGGGLVQAGGSLRLSCAASGSTFGRYAMGWYRQAPGKERELVAAITRGGSTNYADSVKGRFTISRDNAKNTVYLPMNSLKPEDTAVYYCAADKPGIFSRFDYWGQGTQVTVSS | low polyreactivity
33 | QVQLVESGGGLVQAGGSLRLSCAASGRTFSPYAMGWYRQAPGKERELVAAISWIGGSTYYADSVKGRFTISRDNAKNTVYLQMNSLKPEDTAVYYCAADKSVFSDSHAVSMIYRYDYWGQGTQVTVSS | low polyreactivity
34 | QVKLVESGGGLVQAGGSLRLSCADSGSIFQRYAMGWYSQKPGKAREFVAAISGRGGSTYYADSVKGRFTISRDNAKNTVYLQMNSLKPEDTAVYYCAADSSRFYGRPRYYYWGQGTQVTVSS | high polyreactivity
35 | QVQLVESGGGLVQAGGSLRLSCAASGRIFSQNAMGWYRQAPGKERELVAAISGGSTNYADSVKGRFTISRDNAKNTVYLQMNSLKPEDTAVYYCAVRWYFYHRSVEYDYWGQGTQVTVSS | low polyreactivity
36 | QVHLVESGGGLVQAGCSLRLICAASRYIFGYYAMGWYRQAPGKERELVAAISTDGSTDYADSVKVRFTISRYNANNTVDLQMNRLKPEDSALYYCAKELFIVTNGVYIYDSWGEGTQVTVSS | low polyreactivity
37 | QVQLVESGGGLVQAGGSLRLSCAASGRITVFYTMGWYRQAPGKERELVATITRSGSRTYYADSVKGRFTISRDNAKNTVYLQMNSLKPEDTAVYYCARSQAVYDGWFAKFGYWGQGTQVTVSS | low polyreactivity
38 | QVQLVESGGGLVQAGGSLRLSCAASGSIFRPYAMGWYRQAPGKEREFVASISWRGGSTYADSVKGRFTISRDNAKNTVYLQMNSLKPEDTAVYYCAAKFWRYRYYEYDYWGQGTQVTVSS | high polyreactivity
39 | QVQLVESGGGLVQAGGSLRLSCAASGGIFSAYDMAWYRQAPGKERELVAAINSGGSTNYADSVKGRFTISRDNAKNTVYLQMNSLKPEDTAVYYCAAAKVSWFGLKYYYWGQGTQVTVSS | high polyreactivity
40 | QVQLVESGGGLVQAGGSLRLSCAASGSTFYFYAMGWYRQAPGKERELVATITTRGGSTYYADSVKGRFTISRDHAKNTLDLQMNILKPEDTAVYYCAREAWYKSYSRIKFGYWGQGTQVTVSS | high polyreactivity
